Article PMC9293640, “Insights into the structural dynamics and helicase-catalyzed unfolding of plant RNA G-quadruplexes”

Tests used:
[1] = biological target: T1, DExH1 (Arabidopsis thaliana, UniProt F4ILR7 1-995); assay: MST; preferred substrate (3' tail rG4); EC50 only in figure; MST: 20 nM FAM-RNA, buffer not in material; pull-down: 20 mM Tris-HCl pH 7.5, 300 mM KCl, 0.1% Tween-20, 2 mM EDTA, RNase inhibitor, 4 °C 4 h; conditions: protein: recombinant; tags: 6xHis-SUMO removed; label: 3'-FAM; G4, 3' ss tail 15 nt
T1 sequence: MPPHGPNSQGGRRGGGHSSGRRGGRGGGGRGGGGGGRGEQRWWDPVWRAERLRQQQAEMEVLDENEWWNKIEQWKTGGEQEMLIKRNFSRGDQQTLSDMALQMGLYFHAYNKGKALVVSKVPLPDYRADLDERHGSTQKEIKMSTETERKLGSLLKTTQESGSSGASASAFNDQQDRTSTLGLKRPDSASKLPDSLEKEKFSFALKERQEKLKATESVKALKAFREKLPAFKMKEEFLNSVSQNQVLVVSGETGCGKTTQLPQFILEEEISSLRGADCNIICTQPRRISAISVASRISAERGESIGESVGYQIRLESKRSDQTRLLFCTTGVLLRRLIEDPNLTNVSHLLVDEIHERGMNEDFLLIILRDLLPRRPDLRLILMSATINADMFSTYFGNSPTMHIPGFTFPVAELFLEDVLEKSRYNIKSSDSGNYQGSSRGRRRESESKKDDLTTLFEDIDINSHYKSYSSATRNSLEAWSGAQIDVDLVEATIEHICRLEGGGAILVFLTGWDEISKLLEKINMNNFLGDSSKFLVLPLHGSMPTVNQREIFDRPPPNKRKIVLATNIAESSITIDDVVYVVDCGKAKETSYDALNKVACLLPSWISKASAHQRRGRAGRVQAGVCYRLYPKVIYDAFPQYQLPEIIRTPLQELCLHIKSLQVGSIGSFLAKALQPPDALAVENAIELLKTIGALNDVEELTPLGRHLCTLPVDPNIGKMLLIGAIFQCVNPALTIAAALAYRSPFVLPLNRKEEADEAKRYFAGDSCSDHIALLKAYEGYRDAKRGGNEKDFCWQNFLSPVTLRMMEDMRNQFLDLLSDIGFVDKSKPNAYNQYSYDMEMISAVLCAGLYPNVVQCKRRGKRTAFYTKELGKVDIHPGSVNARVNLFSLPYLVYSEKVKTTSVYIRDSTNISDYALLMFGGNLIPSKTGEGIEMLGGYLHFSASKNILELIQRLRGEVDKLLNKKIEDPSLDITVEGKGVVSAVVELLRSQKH

[2] = biological target: T2, DExH15 (Arabidopsis thaliana, UniProt B9DFG3 1-1171); assay: as above; conditions: protein: recombinant; tags: 6xHis-SUMO removed; label: 3'-FAM; G4, 3' ss tail 15 nt
T2 sequence: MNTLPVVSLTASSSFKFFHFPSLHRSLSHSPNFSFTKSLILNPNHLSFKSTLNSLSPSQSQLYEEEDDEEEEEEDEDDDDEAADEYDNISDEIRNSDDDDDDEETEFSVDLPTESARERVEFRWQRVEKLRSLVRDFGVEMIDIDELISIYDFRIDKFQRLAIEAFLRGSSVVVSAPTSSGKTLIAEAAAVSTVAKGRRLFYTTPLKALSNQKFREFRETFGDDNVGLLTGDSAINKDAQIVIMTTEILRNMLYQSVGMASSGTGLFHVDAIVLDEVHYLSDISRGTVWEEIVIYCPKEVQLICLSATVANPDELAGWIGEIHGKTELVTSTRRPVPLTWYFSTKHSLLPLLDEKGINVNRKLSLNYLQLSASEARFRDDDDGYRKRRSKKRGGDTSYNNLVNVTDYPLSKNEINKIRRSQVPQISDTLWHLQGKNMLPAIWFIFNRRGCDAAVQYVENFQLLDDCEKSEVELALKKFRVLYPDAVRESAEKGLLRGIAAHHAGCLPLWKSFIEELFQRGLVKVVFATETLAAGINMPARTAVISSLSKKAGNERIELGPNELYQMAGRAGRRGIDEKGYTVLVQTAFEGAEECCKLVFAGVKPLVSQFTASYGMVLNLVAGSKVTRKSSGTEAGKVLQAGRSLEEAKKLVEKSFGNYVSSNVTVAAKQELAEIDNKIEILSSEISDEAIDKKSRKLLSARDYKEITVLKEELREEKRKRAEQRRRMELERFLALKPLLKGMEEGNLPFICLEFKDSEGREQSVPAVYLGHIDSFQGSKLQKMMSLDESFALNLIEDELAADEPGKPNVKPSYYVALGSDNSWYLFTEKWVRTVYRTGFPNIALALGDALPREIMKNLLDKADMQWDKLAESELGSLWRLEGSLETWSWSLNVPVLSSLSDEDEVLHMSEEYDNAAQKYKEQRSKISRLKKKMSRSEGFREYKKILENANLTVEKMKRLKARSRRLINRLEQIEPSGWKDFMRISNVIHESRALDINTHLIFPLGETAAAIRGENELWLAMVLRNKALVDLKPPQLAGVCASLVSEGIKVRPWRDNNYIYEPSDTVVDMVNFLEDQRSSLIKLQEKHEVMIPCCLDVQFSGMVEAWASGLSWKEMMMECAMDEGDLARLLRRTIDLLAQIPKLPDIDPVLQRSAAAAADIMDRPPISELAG

B1: G4S (3' tail rG4) (structured_RNA)
RNA: GGGAGGGAAGGGGAAGGGGUUUUUUUUUUUUUUU
B1: binds [1]; binds [2].
